{"source": "patent US20200239579A1", "key": {"[1]": {"target": "human PD-L1 (full length, on cells) (human), Q9NZQ7", "sequence (Q9NZQ7 19-290 limits assumed)": "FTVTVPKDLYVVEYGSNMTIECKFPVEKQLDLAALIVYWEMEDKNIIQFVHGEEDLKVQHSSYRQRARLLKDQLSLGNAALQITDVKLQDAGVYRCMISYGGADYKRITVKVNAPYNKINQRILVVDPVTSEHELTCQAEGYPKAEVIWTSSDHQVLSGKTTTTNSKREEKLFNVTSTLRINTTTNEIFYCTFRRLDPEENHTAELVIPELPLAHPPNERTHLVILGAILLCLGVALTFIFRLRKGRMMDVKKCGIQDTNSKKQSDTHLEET", "assay": "flow cytometry on PC3 cells, PE anti-human IgG secondary, MFI (PE)"}, "[2]": {"target": "human PD-L1 (full length, on cells) (human), Q9NZQ7"}, "[3]": {"target": "cynomolgus monkey PD-L1 (full length, on CHO cells) (cynomolgus monkey (Macaca fascicularis)), G7PSE7", "sequence (G7PSE7 entry or part of it)": "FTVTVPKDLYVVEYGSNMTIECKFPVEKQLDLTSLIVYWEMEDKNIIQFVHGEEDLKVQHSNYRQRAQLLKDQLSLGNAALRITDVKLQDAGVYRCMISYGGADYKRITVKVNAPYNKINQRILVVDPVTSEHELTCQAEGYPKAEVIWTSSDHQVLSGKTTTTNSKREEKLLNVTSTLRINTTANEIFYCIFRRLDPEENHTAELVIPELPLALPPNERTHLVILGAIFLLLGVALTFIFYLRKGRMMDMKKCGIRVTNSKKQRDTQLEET", "assay": "flow cytometry on CHO cells transfected with cynomolgus PD-L1, PE anti-human IgG secondary, MFI (PE)"}, "[4]": {"target": "human PD-L1 (full length, on cells) (human), Q9NZQ7", "assay": "flow cytometry on MDA-MB-231 cells, PE anti-human IgG secondary, MFI (PE)"}, "[5]": {"target": "human PD-L1 (full length, on cells) (human), Q9NZQ7", "assay": "flow cytometry on SK-MES-1 cells, PE anti-human IgG secondary, MFI (PE)"}}, "note": "Read-outs that look alike come from different tables or passages of the source.", "data": [{"binder": "bsIgG1-b12-FEAL×547-FEAR (bispecific antibody, not shown: another chain or arm of the molecule, modifications not checked) heavy: EVQLLEPGGGLVQPGGSLRLSCEASGSTFSTYAMSWVRQAPGKGLEWVSGFSGSGGFTFYADSVRGRFTISRDSSKNTLFLQMSSLRAEDTAVYYCAIPARGYNYGSFQHWGQGTLVTVSSASTKGPSVFPLAPSSKSTSGGTAALGCLVKDYFPEPVTVSWNSGALTSGVHTFPAVLQSSGLYSLSSVVTVPSSSLGTQTYICNVNHKPSNTKVDKRVEPKSCDKTHTCPPCPAPEFEGGPSVFLFPPKPKDTLMISRTPEVTCVVVAVSHEDPEVKFNWYVDGVEVHNAKTKPREEQYNSTYRVVSVLTVLHQDWLNGKEYKCKVSNKALPAPIEKTISKAKGQPREPQVYTLPPSREEMTKNQVSLTCLVKGFYPSDIAVEWESNGQPENNYKTTPPVLDSDGSFFLYSRLTVDKSRWQQGNVFSCSVMHEALHNHYTQKSLSLSPGK light: SYVLTQPPSVSVAPGQTARITCGGNNIGSKSVHWYQQKPGQAPVLVVYDDNDRPSGLPERFSGSNSGNTATLTISRVEAGDEADYYCQVWDSSSDHVVFGGGTKLTVLGQPKAAPSVTLFPPSSEELQANKATLVCLISDFYPGAVTVAWKADSSPVKAGVETTTPSKQSNNKYAASSYLSLTPEQWKSHRSYSCQVTHEGSTVEKTVAPTECS", "values": [{"measurement": "EC50 (read off the curve)", "setting": "[1]", "value": 0.05, "unit": "µg/mL"}, {"measurement": "EC50 (read off the curve)", "setting": "[2]", "value": 0.1, "unit": "µg/mL"}, {"measurement": "EC50 (read off the curve)", "setting": "[3]", "value": 0.2, "unit": "µg/mL"}, {"measurement": "EC50 (read off the curve)", "setting": "[4]", "value": 0.06, "unit": "µg/mL"}, {"measurement": "EC50 (read off the curve)", "setting": "[5]", "value": 0.2, "unit": "µg/mL"}]}]}
